Laboratory results as given in the Human Domainome abundance scans (Beltran et al. 2025).
± gives the uncertainty stated by the source.

B1: WW domain-containing transcription regulator protein 1, residues 116 to 162; numbered along this chain, Q9GZV5 (parent)
chain: QSYDVTDELPLPPGWEMTFTATGQRYFLNHIEKITTWQDPRKAMNQP

Variants of: B1
Test: abundance fitness (aPCA) (normalised: wild type 0, dead -1); higher = more abundant; growth selection in yeast, the domain comes from the species named
Details: Homo sapiens

| Variant | abundance fitness |
| --- | --- |
| M17S | -0.102 ± 0.026 |
| M17C | -0.035 ± 0.032 |
| M17G | -0.366 ± 0.026 |
| M17H | -0.44 ± 0.05 |
| M17R | -0.279 ± 0.026 |
| M17V | -0.05 ± 0.024 |
| M17D | -0.414 ± 0.046 |
| M17Q | 0.037 ± 0.044 |
| M17N | -0.582 ± 0.046 |
| M17Y | -0.264 ± 0.044 |
| M17T | -0.094 ± 0.037 |
| M17P | -0.345 ± 0.037 |
| H30M | -0.259 ± 0.026 |
| H30D | -0.247 ± 0.041 |
| H30I | -0.412 ± 0.049 |
| H30A | -0.152 ± 0.026 |
| H30R | -0.075 ± 0.029 |
| H30V | -0.226 ± 0.025 |
| H30L | -0.344 ± 0.035 |
| H30P | -0.218 ± 0.041 |
| H30K | -0.05 ± 0.044 |
| H30S | -0.091 ± 0.027 |
| H30G | -0.3 ± 0.027 |
| H30N | -0.088 ± 0.049 |

| Variant | abundance fitness |
| --- | --- |
| H30F | -0.484 ± 0.04 |
| H30Y | -0.338 ± 0.052 |
| H30W | -0.378 ± 0.038 |
| H30Q | -0.076 ± 0.033 |
| H30T | -0.106 ± 0.034 |
| H30C | -0.333 ± 0.046 |
| H30E | -0.167 ± 0.041 |
| T18E | -0.064 ± 0.03 |
| T18W | -0.245 ± 0.036 |
| T18A | 0.023 ± 0.037 |
| T18Q | 0.045 ± 0.051 |
| T18M | -0.056 ± 0.046 |
| T18P | -0.85 ± 0.081 |
| T18R | 0.094 ± 0.031 |
| T18Y | -0.086 ± 0.051 |
| T18L | -0.047 ± 0.037 |
| T18C | -0.009 ± 0.036 |
| T18S | 0.05 ± 0.034 |
| T18N | -0.159 ± 0.053 |
| T18G | 0.018 ± 0.028 |
| T18D | -0.018 ± 0.034 |
| T18K | 0.097 ± 0.031 |
| T18V | -0.035 ± 0.035 |
| I31P | -0.331 ± 0.23 |

| Variant | abundance fitness |
| --- | --- |
| I31N | -0.162 ± 0.23 |
| I31W | -0.08 ± 0.067 |
| I31V | -0.094 ± 0.074 |
| I31T | -0.011 ± 0.083 |
| I31F | -0.14 ± 0.16 |
| I31R | -0.06 ± 0.06 |
| I31G | -0.273 ± 0.063 |
| I31S | -0.182 ± 0.099 |
| I31L | -0.375 ± 0.16 |
| I31Y | -0.166 ± 0.1 |
| I31A | -0.174 ± 0.068 |
| P12T | -0.758 ± 0.076 |
| P12V | -0.921 ± 0.091 |
| P12Y | -0.61 ± 0.062 |
| P12Q | -0.494 ± 0.12 |
| P12R | -0.692 ± 0.045 |
| P12W | -0.826 ± 0.073 |
| W15V | -0.69 ± 0.054 |
| W15R | -0.625 ± 0.029 |
| W15Y | -0.351 ± 0.063 |
| W15E | -0.689 ± 0.076 |
| W15A | -0.913 ± 0.08 |
| W15P | -1.09 ± 0.15 |
| W15H | -0.876 ± 0.17 |

| Variant | abundance fitness |
| --- | --- |
| W15N | -0.616 ± 0.028 |
| W15D | -0.532 ± 0.054 |
| W15K | -0.784 ± 0.076 |
| W15C | -0.627 ± 0.03 |
| W15L | -0.89 ± 0.046 |
| W15M | -0.695 ± 0.039 |
| W15T | -0.753 ± 0.067 |
| W15G | -0.636 ± 0.048 |
| W15I | -0.802 ± 0.094 |
| W15F | -0.311 ± 0.055 |
| W15S | -0.686 ± 0.026 |
| W15Q | -0.5 ± 0.071 |
| L28A | -0.143 ± 0.043 |
| L28K | 0.128 ± 0.067 |
| L28C | -0.16 ± 0.046 |
| L28H | -0.55 ± 0.099 |
| L28S | -0.205 ± 0.043 |
| L28V | 0.035 ± 0.042 |
| L28G | -0.583 ± 0.041 |
| L28P | -0.697 ± 0.099 |
| L28R | -0.112 ± 0.029 |
| L28D | -0.909 ± 0.15 |
| L28I | 0.044 ± 0.13 |
| L28M | 0.055 ± 0.065 |

| Variant | abundance fitness |
| --- | --- |
| L28N | -0.446 ± 0.085 |
| L28W | -0.426 ± 0.035 |
| L28T | -0.096 ± 0.059 |
| L28F | -0.335 ± 0.074 |
| L28Y | -0.268 ± 0.087 |
| F19T | -0.108 ± 0.049 |
| F19S | -0.106 ± 0.041 |
| F19R | -0.089 ± 0.032 |
| F19H | -0.385 ± 0.13 |
| F19Y | -0.082 ± 0.042 |
| F19D | -0.319 ± 0.046 |
| F19Q | -0.121 ± 0.051 |
| F19V | -0.054 ± 0.032 |
| F19P | -0.597 ± 0.033 |
| F19L | -0.115 ± 0.031 |
| F19E | -0.017 ± 0.03 |
| F19M | -0.185 ± 0.047 |
| F19C | -0.274 ± 0.066 |
| F19I | 0.023 ± 0.065 |
| F19G | -0.425 ± 0.027 |
| F19K | -0.047 ± 0.045 |
| F19W | -0.021 ± 0.027 |
| F19A | -0.06 ± 0.03 |
| Y26H | -0.387 ± 0.071 |

| Variant | abundance fitness |
| --- | --- |
| Y26R | -0.487 ± 0.044 |
| Y26P | -0.814 ± 0.15 |
| Y26E | -0.586 ± 0.065 |
| Y26W | -0.587 ± 0.054 |
| Y26S | -0.54 ± 0.042 |
| Y26T | -0.409 ± 0.05 |
| Y26K | -0.506 ± 0.051 |
| Y26A | -0.397 ± 0.034 |
| Y26D | -0.739 ± 0.085 |
| Y26C | -0.566 ± 0.065 |
| Y26G | -0.661 ± 0.047 |
| Y26V | -0.322 ± 0.039 |
| Y26F | -0.265 ± 0.06 |
| Y26N | -0.412 ± 0.067 |
| Y26I | -0.409 ± 0.074 |
| N29I | -0.949 ± 0.031 |
| N29A | -0.919 ± 0.041 |
| N29V | -1.09 ± 0.036 |
| N29S | -0.357 ± 0.035 |
| N29P | -1.11 ± 0.13 |
| N29H | -0.278 ± 0.071 |
| N29C | -1.04 ± 0.13 |
| N29Q | -0.779 ± 0.061 |
| N29W | -0.965 ± 0.093 |

| Variant | abundance fitness |
| --- | --- |
| N29R | -0.763 ± 0.048 |
| N29T | -0.847 ± 0.051 |
| N29D | -0.42 ± 0.066 |
| N29K | -0.826 ± 0.052 |
| N29E | -0.931 ± 0.063 |
| N29M | -1.02 ± 0.046 |
| N29F | -1.01 ± 0.082 |
| N29L | -1.01 ± 0.035 |
| T20C | -0.356 ± 0.029 |
| T20Y | -0.796 ± 0.038 |
| T20K | -0.873 ± 0.13 |
| T20W | -1 ± 0.052 |
| T20P | -0.937 ± 0.13 |
| T20S | -0.115 ± 0.041 |
| T20H | -0.451 ± 0.041 |
| T20Q | -0.924 ± 0.15 |
| T20G | -0.381 ± 0.03 |
| T20R | -0.65 ± 0.041 |
| T20E | -0.387 ± 0.054 |
| T20M | -0.295 ± 0.076 |
| T20A | -0.287 ± 0.036 |
| T20L | -0.519 ± 0.045 |
| T20N | -0.081 ± 0.054 |
